According to article PMC3173486:

Key:
[1] = target: HA of A/HongKong/156/97 (H5N1, clade 0) (influenza A virus A/HongKong/156/97 (H5N1)) (UniProt O56140)
[2] = target: HA of A/HongKong/156/97 (H5N1, clade 0) (influenza A virus A/HongKong/156/97 (H5N1)), O56140
[3] = target: HA of A/VietNam/1194/04 (H5N1, clade 1) (influenza A virus A/VietNam/1194/04 (H5N1))
[4] = target: HA of A/Indonesia/5/05 (H5N1, clade 2.1) (influenza A virus A/Indonesia/5/05 (H5N1))
[5] = target: HA of the H5N1 viruses

For “RpSP-D trimers (from UniProt Q9N1X4 21-378) (natural protein)”, the HI assay: minimal inhibitory concentration of RpSP-D trimers; failed to inhibit [1] was > 4500 ng/100 µl.

B1: recombinant porcine SP-D, Q9N1X4 21-378 (natural protein)
chain: AEMKTYSQRAVANACALVMCSPMENGLPGRDGRDGREGPRGEKGDPGLPGAVGRAGMPGLAGPVGPKGDNGSTGEPGAKGDIGPCGPPGPPGIPGPAGKEGPSGQQGNIGPPGTPGPKGETGPKGEVGALGMQGSTGARGPAGLKGERGAPGERGAPGSAGAAGPAGATGPQGPSGARGPPGLKGDRGPPGERGAKGESGLPGITALRQQVETLQGQVQRLQKAFSQYKKVELFPNGRGVGEKIFKTGGFEKTFQDAQQVCTQAGGQMASPRSETENEALSQLVTAQNKAAFLSMTDIKTEGNFTYPTGEPLVYANWAPGEPNNNGGSSGAENCVEIFPNGKWNDKACGELRLVICEF
Work on B1 yielded an HI assay: concentration of RpSP-D required to prevent hemagglutination [2] of 4500 ng/100 µl.

B2: RpSP-D trimers (natural protein)
chain: B1 chain
For B2, the HI assay: minimal inhibitory concentration of RpSP-D trimers; failed to inhibit [3] was > 4500 ng/100 µl and the HI assay: minimal inhibitory concentration of RpSP-D trimers; failed to inhibit [4] was > 4500 ng/100 µl.

B3: RpSP-D multimers (natural protein)
chain: B1 chain
For B3, the HI assay: minimal inhibitory concentration of RpSP-D multimers [5] was 1400 ng/100 µl.
